Test results reported in US20140073768A1.

biological target: FcγRIIIa on human PBMCs expressing heterozygous V158/F158 FcγRIIIa (human) (UniProt P08637); experiment: cell-based or functional assay

| Substance | ADCC EC50, DoHH-2 targets, PBMCs [ng/mL] | ADCC log(EC50), DoHH-2 targets, PBMCs |
| --- | --- | --- |
| alemtuzumab S239D/I332E (antibody) | 3 | 0.49 |
| alemtuzumab V264I/I332E (antibody) | 4 | 0.6 |

biological target: extracellular region of human V158 FcγRIIIa, C-terminal 6xHis-tag and GST-tag (human) (UniProt P08637); experiment: SPR

| Substance | Fold WT [fold] |
| --- | --- |
| alemtuzumab E258H (antibody) | 5.5 |
| alemtuzumab E258Y (antibody) | 1.77 |
| alemtuzumab E272H (antibody) | 384 |
| alemtuzumab E272R (antibody) | 1.38 |
| alemtuzumab E283H (antibody) | 2.31 |
| alemtuzumab E283L (antibody) | 2.56 |
| alemtuzumab H268D (antibody) | 5.66 |
| alemtuzumab K246H (antibody) | 22.4 |
| alemtuzumab K246Y (antibody) | 7.07 |
| alemtuzumab R255Y (antibody) | 1.41 |
| alemtuzumab S267E (antibody) | 2.62 |
| alemtuzumab S304T (antibody) | 12.8 |
| alemtuzumab T260H (antibody) | 1.86 |
| alemtuzumab V284E (antibody) | 1.51 |

biological target: extracellular region of human V158 FcγRIIIa, C-terminal 6xHis-tag and GST-tag (human) (UniProt P08637); experiment: SPR, receptor immobilized, antibody flowed over

| Substance | Kd [nM] |
| --- | --- |
| alemtuzumab, wild type (antibody) | 68 |

biological target: extracellular region of human F158 FcγRIIIa, C-terminal 6xHis-tag and GST-tag (human) (UniProt P08637); experiment: SPR, receptor immobilized, antibody flowed over

| Substance | Kd [nM] |
| --- | --- |
| alemtuzumab, wild type (antibody) | 730 |
